These results are taken from the DeepSol protein solubility set.

A short description of the series: soluble on expression in E. coli; label from the status in PepcDB or PDB records.
Consider “SRRLVHDLLPPEVCSLLNPAAIYANNEISLRDVEVYGFDYDYTLAQYADALHPEIFSTARDILIEHYKSLLMKIDAFHYVQLGTAYRGLQPVPDEEVIELYGGTQHIPLYQMSGFYGKGPSIKQFMDIFSLPEMALLSCVVDYFLGHSLEFDQAHLYKDVTDAIRDVHVKGLMYQWIEQDMEKYILRGDETFAVLSRLVAHGKQLFLITNSPFSFVDKGMRHMVGPDWRQLFDVVIVQADKPSFFTDRRKPFRKLDEKGSLQWDRITRLEKGKIYRQGNLFDFLRLTEWRGPRVLYFGDHLYSDLADLMLRHGWRTGAIIPELEREIRIINTEQYMHSLTWQQALTGLLERMQTYQDAESRQVLAAWMKERQELRCITKALFNAQFGSIFRTFHNPTYFSRRLVRFSDLYMASLSCLLNYRVDFTFYPRRTPLQHEAPLWMDQLCTGCMKTPFLGDMAHIR”, for which the “soluble on expression in E. coli” value is on record as “not soluble”. “MAHHHHHHMHATKSGVTTLSASAGNSDVPVMSAAYEDAARQPNAVFVNVYDIMKSNSWLWSVGLGVHHAGIQVYDKEYQYGRCEEGSGVRAVEPRHSPPHIFREQFFVGQTQLSALEVRKLVARLEQCDTWQGSKYHLVKHNCIHFAQAFCEALLPPHVRVAQMRTALPSTYQSAYMEEVEVDGQQYSLPVLIPPHVSRLSNYATSYLPESALQMLDSMDNPFSTP”: the “soluble on expression in E. coli” value is “soluble”. With “MVESWALTTPPIDIVNQYLFFIKRKTNYMATYYYALASQKFLLEEEPFEEVLKERRRDYGEKNKEIDFWQVIQPAFLNAPELAEAKAKAPEKNVAIVSTNKSFIVWVKLRLEYVLTGEFEAPSDAIPDPLASLDLEHHHHHH” the entry was “not soluble”; with “MYQAVVFFDLDGTLMQDDKTVAASSVRAIQQLRANHVLPVIATGRNVFEVQDVMTTTGIDSIVSANGSYVAYQGQFLSAHELDKELLTDITHFANRQQNALAYYNNAGFALSHRDALTTSNYRALRQTARVAPHFYEHQHINFLLTFDPLNAAQYRQRYRGRLHFVRNNPRALDTMQWGVSKAVGIQDILTKAHLTKVPTYAFGDQLNDIEMFRMIQTPIAMGNGHPQVKQLARYVTADNMHGGIAQGLQHFDLI”, “not soluble”. Then “MSLNNVIFSQKLYDTAQMIVDGCMGDADPACQTACPMHTDVKQYVRMAGEGNFQGALDLIRSKLFLPQTLGRICAHPCEASCRRNTEFGQPISVAGIKRFVAEKMDNQDHWDLNIAPLTNKHIAIVGAGPAGAQAAIELRRQGHEVTIYEKLDVYGGMMRVGIPEYRLPRDVIDFEYSYLAMLGIKTQFGVEIGKDISFDTLRSEHDAVILAHGAHVGSIIPLPGHDNDGVFSAVEYLKEISETRQFPRACKRVMVIGGGDVAMDCARSSWRIGASDVYQCSLESLESLPASQIEIDESLEEGVEFNAGWGPVAIEHENGKVTGITIKKVLSIFDEQGNFAPQYSEESKTISVDTVVFATGQIVADITDGALEQTRGGRYVVDKQTLASSLEDVFVAGDACGGNIVIEAMALGRKAAMSVERFLTARPLTEDRDFEQEYSYSSRLDVPLPKGTVDTPRLHGELRDAEERKQDFAQVDLGFTEEQIKQEASRCLQCSCKLCMTECIMMNDFSDCPKTIFSDFVNNKSMDPLLAYSCNACDQCTIVCPKDFPMKEMFLGARTDFVKANNGESPMPGHKAINMHQKLGFSKIFTMAKRAVSTKEGHHHHHH”, with “not soluble”. Then “MGSDKIHHHHHHMKLLDHKLSLLEITDEEKSDEIILNLSRNVKKDLEDIVVANVSMENVLVMNIKVPPTLNKQNAVEYATMEISRNLGILPEQLVVAPLDIRGGEGLFFVSKVDQVKSFVTDLMKKEFPETDVVIPDIVKYLEVFEFYFGKRLKGTSVLTVISFLSDYYSIVVLENNHYRSLRLLFSMFWDYMDIVVENTGIQPKELIEGTVNVDLSFLQPYFGDFLIELDREVKVSLDEVNLSRVNQFFYIVDPPIFSPVLSQSLEKFEGVALKQGIVPSFKPGISLGTLGLMIRGGREIGKVKHLSV”, with “not soluble”. As to “FGKVGYATNLTYTANRNKIMKMVHDYKNPSDGSLFSITELTLQDKGGVYLREKDAIGDVYVKGILARGKDGKLIEEEGGYKVDRSQRIKIGSVNPDFSIGWRHNVTWNNITLDLLFNGRFGGIVTSSTQAFLDDYGVSKDTYKARQNGGVWVNGTQYDAEKYYTTIGGEQLMAYYAYKATNIRLQEASLSYTLPGKWFGNVINRLTVSAIGRNLWMIYNKAPFDPEMTSSTGTYNRGDVFMPPSLRSVGFSVKIEL”, the “soluble on expression in E. coli” value was “not soluble”. As for “MDPGQRPNPFGAPGAIPKKPCLSQGSPGTSGSGAPCDEPSRSESPGEGPSGTGGSAAAGDITRQAVVAAITEWSRTRQLRISTGASEGKASIKDWIVCQVNSGKFPGVEWEDEERTRFRIPVTPLADPCFEWRRDGELGVVYIRERGNMPVDASFKGTRGRRRMLAALRRTRGLQEIGKGISQDGHHFLVFRVRKPEEEQCVECGVVAGAVHDFNNMARLLQEGFFSPGQCLPGEIVTPVPSCTTAEGQEAVIDWGRLFIRMYYNGEQVHELLTTSQSGCRISSALRRDPAVHYCAVGSPGQVWLPNVPNLACEIAKRELCDTLDACAKGILLTSSCNGIFCVCYHNGPVHFIGNTVPPDSGPLLLPQGKPTRIFNPNTFLVGLANSPLPAPSHVTCPLVKLWLGKPVAVGKLEPHAPSPRDFAARCSNFSDACVVLEIMPKPLWDAMQ”, the “soluble on expression in E. coli” value was “soluble”. With “MSRTWIRNPLAIFTANGLDAAGGLVVEDGRIVELLGAGQQPAQPCASQFDASRHVVLPGLVNTHHHFYQTLTRAWAPVVNQPLFPWLKTLYPVWARLTPEKLELATKVALAELLLSGCTTAADHHYLFPGGLEQAIDVQAGVVEELGMRAMLTRGSMSLGEKDGGLPPQQTVQEAETILADSERLIARYHQRGDGARVQIALAPCSPFSVTPEIMRASAEVAARHDVRLHTHLAETLDEEDFCLQRFGLRTVDYLDSVGWLGPRTWLAHGIHFNAEEIRRLGEAGTGICHCPSSNMRLASGICPTVELEAAGAPIGLGVDGSASNDASNMILEARQALYLQRLRYGAERITPELALGWATRGSARLLGRSDIGELAPGKQADLALFKLDELRFSGSHDPLSALLLCAADRADRVMVGGAWRVVDGAVEGLDLAALIARHRAAASALIAG” the entry was “not soluble”.

Regarding “MPNSSILLIFLLTIVILIAPEENHKTYCEVLTSNNSNCTAYCKEKPECSWGRCEGYFKTNCVCYSDKYQFCE”, the “soluble on expression in E. coli” value is “not soluble”.

For “GPGSMSAIKRSLNVGVVGMGNMGIPITRNLAFKARSAMYLQIHSRTLSKARQVCDDMSADGATCAMRIHDRYSTMTKWCDVILLTLAHRAASRKVLLEDSEALVTNARPGQIIVDHTTVDMELSRECAHEAERRGAVFLDAPMSGSPKQAFNNQLVLMVGGPAEQVQRVSPIFRMYADHIHHMGANGSGTAAKLLSQALVASHNAAAAEAMTIANRLGIEDYQKLIQVLDASWGSSTMLRRNAPTMQDLVRNPDKLAPSSGASIDNLLEDLALLDASLPKIEKGDNGNGGREVEEERFPVLDASLRMLGAAVESGMGDRDMAAVIHYIPAAAAMEKEEGVRVQPRGLTSGAFLDRNATGKVNSGPAAAAGAAVAASSPPTPAEIEMDPGSLADSLSAAESSSNGKGSTTQAASIAEPLTTASSQQPPAFTPEDFY”, the “soluble on expression in E. coli” value is on record as “soluble”. With “MSRFLISSFILIAFVLQFGEGSIAVQEVKDGEKVQIELFKGAKAIQRSVDAGEQIFHFEGENKGVFVDANGKAIDSSNYEENNGHLVIKKFTKADVGSYSEYPTKIIKTKTDHGFSGVAAPVLKLSLQ” the entry was “soluble”; with “SMGDREQLLQRARLAEQAERYDDMASAMKAVTELNEPLSNEDRNLLSVAYKNVVGARRSSWRVISSIEQKTMADGNEKKLEKVKAYREKIEKELETVCNDVLSLLDKFLIKNCNDFQYESKVFYLKMKGDYYRYLAEVASGEKKNSVVEASEAAYKEAFEISKEQMQPTHPIRLGLALNFSVFYYEIQNAPEQACLLAKQAFDDAIAELDTLNEDSYKDSTLIMQLLRDNLTLWTSDQQDEEAGEGN”, “soluble”. Turning to “MTERFFAPCPRGLETVLAAELERLDATSIQASPGGVGFHGNWQTCYRANLESRIASRILWQIAKDQYRSEADIYDLTHSLPWQDWFEPRLSIKVNLAAIKCPLRSLDFVTLRIKDAVCDKFRAIHGKRPDIDTVAPDMRIHGFLNAQEFTLYLDTSGEALFKRGLRQTQGEAPLRENLAAGILALTGWQPGTPLLDPMCGSGTLLLEAAQIACRIAPGSGRQFAFEQLKLFDARSWKKLKQTATERQHERTFQSIYGSDLYGSALAHTRNNLAAAGLAECVTLKQANVLEISAPAETGILVSNPPYGVRIGDHQMLAEFYPRLGDVLKQRFSGWRAFLLTADPLLAKSIRLTPSRRTPLFNGALECRLLEYRLVAGSMRREKQPSSESSTNQPIT”, the “soluble on expression in E. coli” value is “not soluble”.

Take “MGSDKIHHHHHHMPEPKQETDFTAPAFRWENQQLKAIYTPKNIYLDDLKGIERQKEKIIQNTLQFLNGLPANDVLLTGSRGTGKSSIVRALLTEYAPQGLRLIEIERDDLADLPKIQKIIQNRPEKYIVYCDDLAFNAEDENYRSLKSVLDGSLQSGSTNFIIYATSNRRHLLPEFMHENTPVTKVDVPQYTELHPQEAIEEKISLSDRFGLWLSFYPMDQNLYLEIVEHYLDKANMPFNDEVRAESLRWCQMRGQRSGRAAYQFSKHWIGLNALKDLSNN”: the “soluble on expression in E. coli” value is given as “not soluble”. With “IVKASTYMGKRRIGALISMERETGMTDYVETGIPMNANLTSELLINTFIPNTPLHDGAVIINNDTILAAACYLPLSENPFISKELGTRHRAALGVSEVTDCLTIVVSEETGHISLTKNGE” the entry was “soluble”. On to “MDAHLVQAKKTSTASELSDSSLTFPFIGDYLSSPSLTTSDYVSDCSNLTVEGPVPANQEFSSSDESSVYISSALRLADYAFTPDDNIRIKPDAVIVICTQCQHQIQDKFFLSIDGRNYHENCLQCSTCENPLSNKCFYKDKTFYCKGCYFRTHVTSTASSCRELGPKCASCDRTIQATDWVRRARNYVYHLACFSCNQCKRQLSTGEEYALQEGNLLCKQHFLELVEGDSGVSSQKAKTKRVRTTFAEDQLSVLQTYFNRDSNPDGADLEKIASMTGLSKRVTQVWFQNSRARQKKWHQKSEGDNGDSQRSSVGPSSPSQKSDSSSEMMYPTSVTTSVEDAIPDSIVILGSLQFD”, for which the “soluble on expression in E. coli” value was “not soluble”. Then “MSLKVHLNYETGPEHWADLQSRLAPGIRLSSGECRPANGFDILVSGEPTLEELEGNGRLRAVIVPWVGVPLATLDRMKEFPSIALHNLPYNIGPTAEMAVALLLAAAKRIVPYDQRLRRGYWSGEHTGVPGSVMLDGGLAVILGYGRIGRRVAAACRGLGMRIAGVRRNPGTSDEEYALADLSGLLPQAAALIVCLPHTHQTDRLIGSRELERLPSNAVLVNVARGGIVNEEALYRTLQARRIYAAGIDVWYRYPSATERKQGLPHPPSSFPFHTLDNVVMSPHRAGWSEEKEPARIAELANMLNAAARGEGHHHHHH”, with “not soluble”; and “MTLKGRIHSFESFGTLDGPGIRFVVFMQGCPLRCIYCHNRDTWDVNAGSEYTPRQVIDEMMKYIDYIKVSGGGITVTGGEPVLQADFVAEVFRLAKEQGVHTALDTNGFADIEKVERLIKYTDLVLLDIKHAREDKHKIITGVSNEKIKRFALYLSDQGVPIWIRYVLVPGYTDDEDDLKMAADFIKKLKTVEKIEVLPYHNMGAYKWEKLGQKYMLEGVKGPSAQEVEKAKRILSGK”, with “soluble”.
